# Assay results taken from US20100028366A1, “SYNERGISTIC EFFECT BETWEEN A […] AND ANOTHER OXIDATIVE INDUCING SYSTEM FOR TREATING TUMORS” (priority 2005, published 2010).
# How the values were obtained:
# [1] = tested on: W&Wlis cells; assay: DNA content analysis by flow cytometry, labeling with propidium iodide; type: cell-based, canine; parameters: unit not given here; details: 0 μg lin, 5 mEU/ml GO
# [2] = tested on: W&Wlis cells; assay: Analysis of the type of death by flow cytometry (annexin V-FITC/propidium iodide); type: cell-based, canine
# Protocol: The annexin V-FITC and propidium iodide assay was performed in parallel by flow cytometry. The pattern of death of the system was analyzed when adding 5 mEU/ml of glucose oxidase and the combined therapy (5 mEU/ml of GO and 500 μg/ml of linamarin) at 48 hours, followed by the control of untreated cells and of the cells incubated with 500 μg/ml of linamarin at 96 hours. Furthermore, another group of cells was subjected to the same conditions except 10 mM of N-acetyl cysteine (NAC) were added. The cells treated with the combined therapy were subsequently studied at 48 hours in the absence and presence of 100 μM of Z-VAD-fmk, followed by the control of treatment of the cells with UV in the same conditions. Finally, the cells treated with the combined therapy were shown at 48 hours in the absence and presence of 300 μM of 1,5-isoquinolinediol (DIQ), observing that the pattern of death is not modified when PARP-1 is inhibited (FIG. 4).
# 10^5 W&Wlis cells were seeded in test tubes with a screw-on cap and flat side (Nunc). After 24 hours, different amounts of linamarin (50, 200 or 500 μg/ml) and glucose oxidase (5 mEU/ml) were added in the specified cases. In the appropriate assays, the medium was supplemented with N-acetyl cysteine (10 mM), 1,5-isoquinolinediol (300 μM) or Z-VAD-fmk (100 μM). […] They were centrifuged for 5 minutes at 1200 rpm and the cell precipitate was washed first with PBS and then with binding buffer (0.1 M Hepes/NaOH pH 7.4, 1.4 M NaCl and 25 mM CaCl2). The cells were again precipitated and resuspended in 100 μl of binding buffer supplemented with 5 μl of annexin V-FITC and 2.5 μg/ml of propidium iodide. The samples were incubated for 15 minutes in the dark. Data acquisition and analysis was carried out by means of a FACSCalibur flow cytometer (DB Biosciences) with the Cell Quest program.
# [3] = tested on: W&Wlis cells; assay: Determination of the extracellular peroxide concentration; type: cell-based, canine; details: 48 hours; 0.5 mg/ml of linamarin and/or 5 mEU/ml of glucose oxidase; control approximately 20 μM
# Protocol: The H2O2 levels (FIG. 3B) produced extracellularly in the combined therapy were further studied in the invention. To do so, the amount of H2O2 present in the culture medium of W&Wlis cells at 48 hours in a treatment with 0.5 mg/ml of linamarin, in the presence of 5 mEU/ml of glucose oxidase or in the combination of both treatments, was analyzed although positive results were also obtained using other concentrations.
# The samples to be analyzed were diluted in 1 ml of 0.1 M phosphate buffer pH 7.4. Then 3.7 EU/ml of peroxidase (Sigma-Aldrich, St. Louis, USA) and 0.1 mg/ml of ortho-dianisidine (Sigma-Aldrich, St. Louis, USA) were added. The samples were incubated at room temperature for 30 minutes and absorbances at 436 nm were determined. The H2O2 concentration was obtained by interpolation of the data obtained in a standard line performed with increasing concentrations of H2O2.
# [4] = tested on: W&Wlis cells; assay: Measurement of intracellular ATP; type: cell-based, canine; details: linamarin (500 μg/ml) and/or glucose oxidase (5 mEU/ml), over time, versus untreated cells
# Protocol: The levels of intracellular energy in the form of ATP decrease when a blockage of the mitochondrial electron transport chain occurs since it is the essential source of obtaining energy of the cells. […] This effect is due to the fact that the maximum H2O2 production by glucose oxidase occurs at short times because the cells have the ability of detoxifying the peroxide and due to the fact that glucose oxidase is inactivated over time by the serum proteins.
# 10^5 W&Wlis cells were seeded in test tubes with a screw-on cap and flat side (Nunc). After 24 hours, the medium was changed, adding linamarin (500 μg/ml) and glucose oxidase (5 mEU/ml) where appropriate. After 4, 8, 12, 24, 48 or 72 hours, the cells were centrifuged and processed following the instructions of the ATP Bioluminescence Assay Kit CLS II, of Roche Applied Science. The luminescence was analyzed with a Monolight 2010 luminometer (Analytical Luminescence Laboratory, San Diego) and expressed in relative light units (RLU).
# [5] = tested on: W&Wlis cells; assay: Structural modifications of the mitochondrion (pDsRed2-mito, confocal microscopy); type: cell-based, canine; details: linamarin 500 μg/ml from 48 hours; glucose oxidase 5 mEU/ml; combination after 24 hours
# Protocol: For the purpose of studying the mitochondrial dynamics occurring as a result of the oxidative stress caused by the activity of the claimed system, W&Wlis cells were stably transfected with the plasmid pdsRed2-mito (Clontech) containing the gene of the one red fluorescent protein carried by a transport signal peptide to the mitochondrion. This allowed viewing the mitochondria of cells treated with linamarin and glucose oxidase by fluorescence microscopy. […] This effect starts to be observed 48 hours after treatment with linamarin (FIG. 1B) and becomes more pronounced after 72 hours, a slight swelling of the fragments (FIG. 1C) being observed.
# To study the structural modifications of the mitochondrion during therapy, the W&W and W&Wlis cells were transfected with the plasmid pDsRed2-mito (Clontech, BD Bioscience) containing the gene of a red fluorescent protein which is expressed exclusively in mitochondria. The transfection was performed similarly to the previous section and clones were selected by resistance to neomycin (0.75 and 1.5 mg/ml respectively). The cells from stable expression clones of the protein were seeded in multiwell plates on cover slips (2.5×10^4) and were treated with linamarin (50, 200 or 500 μg/ml) and glucose oxidase (5 mEU/ml). After the suitable incubation time for each experiment (24, 48 or 72 hours) elapsed, the cells were fixed with 4% paraformaldehyde. […]
# [6] = tested on: W&Wlis cells; assay: AIF location study by immunofluorescence; type: cell-based, canine; details: 5 mEU/ml glucose oxidase, with or without 500 μg/ml linamarin
# Protocol: Nevertheless, the activation of AIF could be caused by a mechanism that is PARP-1-independent (Cregan, 2004). AIF is a protein residing in the mitochondrion and when activated, it translocates to the nucleus in which it activates apoptosis. The possible translocation of AIF was analyzed by immunofluorescence with antibodies specific against AIF of W&Wlis cells treated with the therapy.
# The cells were seeded on cover slips in 24-well plates and were treated according to the requirements of each experiment. After the appropriate incubation time for each assay, the cells were fixed with 4% paraformaldehyde for 30 minutes at room temperature or methanol at −20° C. for 10 minutes. The samples were subsequently permeabilized 10 minutes with PBS supplemented with triton X-100 or 0.1% sodium dodecyl sulfate (SDS) and were blocked by incubating for 30 minutes with PBS with 0.1% triton X-100 and with 1% bovine serum albumin, or PBS with 0.01% SDS and a 10% fetal calf serum. They were subsequently incubated for 45 minutes with the primary antibody at room temperature or overnight at 4° C. The antibodies used were anti-linamarase (1/200, supplied by Monica Hughes) and anti-AIF (1/50, Cell Signaling Technology). The secondary antibody used was anti-rabbit IgG coupled to fluorescein (1/50, Amersham Pharmacia Biotech). […]
# [7] = tested on: Swiss mice; assay: Toxicity of glucose oxidase in Swiss mice; type: in vivo; details: intraperitoneally and intravenously
# Protocol: The toxicity of glucose oxidase was evaluated in Swiss mice weighing about 20 grams, intraperitoneally and intravenously inoculated with different amounts of the purified enzyme. […] This allowed establishing an optimal dose range for GO for the combined therapy in this type of animal.
# [8] = 0 μg lin, 5 mEU/ml GO, 48 hours, NAC (10 mM)
# [9] = Table 4, 0 μg lin, 5 mEU/ml GO, 48 hours, Z-VAD-fmk (100 μM)
# [10] = Table 4, 0 μg lin, 5 mEU/ml GO, 48 hours, control (no Z-VAD-fmk)
# [11] = Table 5, GO, 32 hours, DIQ (300 μM)
# [12] = Table 5, GO, 32 hours, control (no DIQ)
# [13] = Table 5, GO, 48 hours, DIQ (300 μM)
# [14] = Table 5, GO, 48 hours, control (no DIQ)
molecule,measurement,setting,value
"GO: glucose oxidase enzyme catalyzing the conversion of glucose into gluconic acid, generating hydrogen peroxide (protein, UniProt P13006 17-605, looked up) Glucose oxidase: LPHYIRSNGIEASLLTDPKDVSGRTVDYIIAGGGLTGLTTAARLTENPNISVLVIESGSYESDRGPIIEDLNAYGDIFGSSVDHAYETVELATNNQTALIRSGNGLGGSTLVNGGTWTRPHKAQVDSWETVFGNEGWNWDNVAAYSLQAERARAPNAKQIAAGHYFNASCHGVNGTVHAGPRDTGDDYSPIVKALMSAVEDRGVPTKKDFGCGDPHGVSMFPNTLHEDQVRSDAAREWLLPNYQRPNLQVLTGQYVGKVLLSQNGTTPRAVGVEFGTHKGNTHNVYAKHEVLLAAGSAVSPTILEYSGIGMKSILEPLGIDTVVDLPVGLNLQDQTTATVRSRITSAGAGQGQAAWFATFNETFGDYSEKAHELLNTKLEQWAEEAVARGGFHNTTALLIQYENYRDWIVNHNVAYSELFLDTAGVASFDVWDLLPFTRGYVHILDKDPYLHHFAYDPQYFLNELDLLGQAAATQLARNISNSGAMQTYFAGETIPGDNLAYDADLSAWTEYIPYHFRPNYHGVGTCSMMPKEMGGVVDNAARVYGVQGLRVIDGSIPPTQMSSHVMTVFYAMALKISDAILEDYASMQ","DNA content by flow cytometry, labeling with propidium iodide",[1]; 24 hours,1.94
same,"DNA content by flow cytometry, labeling with propidium iodide",[1]; 48 hours,1.03
same,Apoptosis,"[2]; 0 μg lin, 5 mEU/ml GO, 24 h",5.98
same,Necrosis,"[2]; 0 μg lin, 5 mEU/ml GO, 24 h",12.27
same,Apoptosis,"[2]; 0 μg lin, 5 mEU/ml GO, 48 h",8.34
same,Necrosis,"[2]; 0 μg lin, 5 mEU/ml GO, 48 h",4.50
same,Apoptosis,[2]; [8],5.98
same,Necrosis,[2]; [8],5.42
same,Apoptosis,[2]; [9],13.94
same,Necrosis,[2]; [9],18.92
same,Apoptosis,[2]; [10],3.27
same,Necrosis,[2]; [10],29.59
same,Apoptosis,[2]; [11],9.32
same,Necrosis,[2]; [11],16.69
same,Apoptosis,[2]; [12],6.50
same,Necrosis,[2]; [12],27.11
same,Apoptosis,[2]; [13],17.52
same,Necrosis,[2]; [13],20.89
same,Apoptosis,[2]; [14],12.92
same,Necrosis,[2]; [14],31.87
same,extracellular H2O2 concentration in the culture medium,[3],did not cause significant variations
same,intracellular ATP levels,[4],moderate and transitory reduction of ATP after 6 hours
same,mitochondrial pattern,[5],did not cause any structural change in most of the mitochondria
same,AIF location,[6],typically mitochondrial AIF pattern
same,toxicity,[7]; daily doses between 0.25 and 0.1 EU/g,no harmful effect
same,toxicity,"[7]; doses of 1 and 0.5 EU/g, first 24 hours post-administration",lethal effect
